± gives the uncertainty stated by the source.
Experiment: amyloid nucleation score (Sup35N fusion, yeast selection) (log enrichment); library NNK3; higher = more nucleation; inactive = no reads after selection
Summary of the method: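 Nucleation score is defined as the DiMSum log enrichment of output over input reads, with centring on the mode score of non-aggregating sequences. A minimum of 100 input reads was required for each sequence. Reads came from Illumina sequencing of plasmid inserts from psi-negative yeast expressing Sup35N fused to peptides of 20 random codons, induced with 100 μM copper sulfate for 24 hours and grown 7 days at 30°C on medium lacking adenine and uracil.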

| Substance | amyloid nucleation score |
| --- | --- |
| SLESWFVTRRCSRYESTFMS | inactive |
| SLEVLIYDGKCMSCDDVVNG | inactive |
| SLFFN | inactive |
| SLGTLISLPYTSA | inactive |
| SLIDHYLSDLSKKS | inactive |
| SLILALFSGISSDF | 0.122 ± 0.37 |
| SLKEVSFWSASRDDGGDRMQ | inactive |
| SLKGVITSFVRNVFFNRAMY | inactive |
| SLLYEEPEVLINNSSGSAS | inactive |
| SLMCLLVRLLIKN | inactive |
| SLMKGCTLLDSFRLRKP | inactive |
| SLMYKWKEGSQDGYCWAW | 0.824 ± 0.28 |
| SLNKHR | inactive |
| SLNMLDFFYSLFGVCNKTVL | inactive |
| SLNWVGVCNMKSPVNSTQSI | 0.329 ± 0.67 |
| SLSFIECLMELNNLVYYLGS | inactive |
| SLSLSIIRAVDFWDMVRGLN | inactive |
| SLSVVMLLKVVVRPSNWWEG | inactive |
| SLTSWGRMMSWVPCSKELRQ | inactive |
| SLTVKFSLLKGESQVDHFVS | -0.158 ± 0.85 |
| SLVIAIHRAFLFMAGRSRVG | inactive |
| SLVSFFCHVGNKWFNHDFPI | inactive |
| SLVSYINGKVKNVPCKSCCY | inactive |
| SLVTRGLPVCRFRSDSDYSI | inactive |

| Substance | amyloid nucleation score |
| --- | --- |
| SLWSVEDSGYKC | inactive |
| SLWYIRSLLCFEVLSLFHLL | inactive |
| SLYRGYLFGCGQFDNIVYEL | inactive |
| SMANFTAETSDIRINFIVSM | 0.779 ± 0.14 |
| SMCMRCLSVSKKKAQKSDEP | inactive |
| SMCRTPILQPIAVQNVSMGR | inactive |
| SMFRSRFLKVRDVSTTSQCA | inactive |
| SMFYMRFHVQ | inactive |
| SMKFC | inactive |
| SMKGNSWF | inactive |
| SMLVELVFSLQTQSSGSSGR | -0.059 ± 0.43 |
| SMNNWGFDNICSQVCPLAAM | inactive |
| SMNPIECYNAHLVSSGFWVQ | inactive |
| SMNRV | inactive |
| SMQKGGK | inactive |
| SMRLVAWYW | inactive |
| SMWYASFTYESYLCLFKESR | inactive |
| SMYLYVAWARVLNDLDNID | inactive |
| SNAFSGLRQLPPSNDSLCKG | inactive |
| SNAMMGSRRIGLMGYAVRVL | inactive |
| SNCFPLSFWIR | -0.88 ± 1.3 |
| SNDYCRGCVCLDSGMNVCVA | inactive |
| SNFLGNQRMLRSAQIPRMRL | inactive |
| SNHIDAVNHDGHSHPYHTTR | inactive |

| Substance | amyloid nucleation score |
| --- | --- |
| SNIGVGKTYHRCTFFFWLIC | 0.989 ± 0.24 |
| SNKECLLGIGWFASYKVIPT | inactive |
| SNKSHVCYFSIEFVLISGLS | inactive |
| SNNLEGVLSVCDFVF | inactive |
| SNPLQGDSLRSVLSCNSIYF | inactive |
| SNSHVTKDLGVCRGLATCRG | inactive |
| SNSVIW | inactive |
| SNSYYWPNLYVFSTVNMVSD | 2 ± 0.098 |
| SNVGSDDTFLVLLHSHSRSG | 0.72 ± 0.49 |
| SNYFTFYLFNVRGIWGFADC | 2.56 ± 0.07 |
| SPAHGLGFDMKMVVFMFGDR | 1.54 ± 0.12 |
| SPDTARTH | inactive |
| SPHLLDWSKIAFLVSHMPHS | inactive |
| SPICNEEYNNVDTCILWGYF | inactive |
| SPLLNPGPSWF | inactive |
| SPMRLLGSSFGQ | inactive |
| SPQGTVCNQSIFVALPLRVG | inactive |
| SPQVLDRWDQFKWKFVFRGS | 0.584 ± 0.13 |
| SPVIKRYCILM | inactive |
| SPVMPMMFGNKRVPLITDLR | inactive |
| SPVSNYYDIKVVRDVSGCFT | inactive |
| SPWYLNVAIGTAKGCLSFID | inactive |
| SQDFKLPSLSTFYRHGMEPS | inactive |
| SQGGFRNMWR | inactive |

| Substance | amyloid nucleation score |
| --- | --- |
| SQLRP | inactive |
| SQSLPFVCA | inactive |
| SQWIIGFTVTCFSSCKILKM | inactive |
| SRALDGYKVPRFWIVRARGR | inactive |
| SRCFWQSLEVTVILGSCINT | 1.64 ± 0.11 |
| SRCGSIGGMKG | inactive |
| SRCPMADCMRKPRGGCSVGR | inactive |
| SRDFKIGCWLKIRSVIDPVW | inactive |
| SREVSLLKWMVIILCLW | inactive |
| SRFGMHKDTKMWSSRCRCVR | inactive |
| SRFKFTAESLISVTVERLFL | 0.626 ± 0.21 |
| SRFNMFNLS | 0.163 ± 0.34 |
| SRGEKNSNFTWTNDFDFFRV | inactive |
| SRHTICHKQNSCRKVLSPPH | inactive |
| SRKVYEPKVPLAVSGCRMNV | inactive |
| SRLNWSRRWSLVSQNARRTS | inactive |
| SRNLPVLTYLFLVKKWEWYP | inactive |
| SRNPYLYQIHVYKVTGFLCC | 2.51 ± 0.062 |
| SRPVVRVINYYELGHIKVMS | inactive |
| SRSPNFQKFLHCMTTSN | inactive |
| SRTSYYMPTIPCMMPMN | inactive |
| SRVGGISC | inactive |
| SRVLILM | inactive |
| SRVRNDWYRVKVMGANVVGY | inactive |

| Substance | amyloid nucleation score |
| --- | --- |
| SRWIGYSFSGGSGGFVGRKA | inactive |
| SRWVIGHVNTGSGGLESDKR | inactive |
| SRYIRGTLCRAVSVNRPHVH | inactive |
| SSAELV | inactive |
| SSAYHSHDSSRTKRNRSGRM | inactive |
| SSCKWLFTSSHPSHPEAS | inactive |
| SSCMAFIMGWKYITMD | inactive |
| SSDCMDDRCCDNCDSSRLLW | inactive |
| SSFGFKAK | inactive |
| SSFLWTVWGFSNNPCCSSVA | 2.46 ± 0.051 |
| SSFTKLPFL | inactive |
| SSGHMICIYYQLVHIIVRLC | inactive |
| SSGLICF | inactive |
| SSGNFA | inactive |
| SSGPLALVL | inactive |
| SSGSPFNCWHSLHCSSRPFK | inactive |
| SSHIRWHGN | inactive |
| SSKMLTLMWMVGPPLSTDGS | inactive |
| SSLAGMQEDC | inactive |
| SSLIFLFDGKHRVLIYNLSN | 0.482 ± 0.47 |
| SSLIWNLSCELLTWLHVRRW | -1.3 ± 2.5 |
